B1: BTBD1 (parent)
chain: IVGFGLYGSIHGPTDYQVNIQIIE
B2: HSP90AB1 (parent)
chain: TLRQKAEADKNDKAVKDLVVLLFE

Variants of: B1
Assay: protein stability index of a GFP-peptide fusion (GPS, HEK-293T) (PSI 1-6); higher = more stable
Conditions: c terminus: a fixed tail appended
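Further: lentivirally expressed fusions sorted by FACS into six bins by GFP to DsRed ratio, PSI derived from sequencing read proportions per bin multiplied by bin number.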

Protein stability index, by site and new letter:
G5: T 2.89; Y 3.17; R 2.57; N 3.75; H 2.33; D 2.4; W 2.79; Q 3.76; K 2.34; A 4.32; C 2.63; P 2.36; S 1.62; M 2.92
G3: P 2.64; A 3.04; D 3.42; F 3.55; N 3.38; S 1.66; E 2.82; V 3.82; W 4.95; K 3.18; R 4.02
I1: S 1.77; R 1.65; V 3.69; H 2.38; G 3.43; D 2.03; F 3.14; K 2.14; C 2.91; T 1.82; E 3.29; Q 3.04; P 1.82; N 2.16
Y7: V 2.16; S 2.47; K 3.4; H 3.81; G 2.06; N 2.96; E 3.6; R 4.6; F 1.86; W 3.5; C 2.57; P 3.54; M 2.82
V2: R 2.96; W 3.31; G 2.59; C 3.88; D 2.79; I 2.6; K 2.02; P 1.76; Y 2.16; Q 4.24; M 2.49; A 2.81
L6: M 1.94; R 2.67; F 4.24; Y 3.48; D 2.33; Q 3.25; G 4.42; I 2.75; P 3.27; N 2.56; H 3.36; E 2.02; V 3.11; T 2.16; A 3.31; W 1.76
F4: T 2.1; W 1.8; K 2.39; P 1.87; A 1.97; H 2.54; G 1.56; R 2.25; C 2.29; M 2.47; I 3.05; L 3.57; D 2.64; S 2.07; Q 1.9
G8: I 2.28; H 2.61; D 2.86; F 2.78

Variants of: B2
Assay: as above
Conditions: c terminus: a fixed tail appended

Protein stability index: each site, then its substitutions
D17: A 1.99; Y 1.91; S 2.58; L 1.49; K 2.14; C 1.83; Q 2.04; F 1.51; G 2.26; P 2.87
A6: W 3.32; I 3.35; D 3.41; E 3.33; N 2.61; C 2.91; K 2.71; Q 2.68; F 2.74
T1: K 2.49; D 3.58; W 2.51; H 3.09; V 2.52; Y 2.63; E 3.92; F 2.42; S 4.38; M 3.02
L22: C 3.82; H 3.79; N 4.2; G 4.5; Y 2.78; E 4.86; P 4.97; F 2.84; D 4.86; T 3.96; V 3.73; M 3.15
K10: V 2.57; S 3.56; Q 2.98; T 2.92; H 2.69; N 2.98; A 3.44
E7: L 2.54; D 2.79; W 1.81; A 2.67; G 2.24; K 2; C 2.28; R 2.29; Y 1.79; N 2.72; Q 1.9; V 2.63
D12: L 2.73; S 3.17; K 1.99; A 2.44; T 2.22; G 2.48; H 2.56; C 2.59

— the supplement of paper PMC10567573
